Test [1] has as its target MeSufBC complex (His-MeSufB with MeSufC-HA) (Monocercomonoides exilis). The test is described as follows: SEC.
Test [2] shares this target. The test is described as follows: mass photometry.
Test [3] has the same target. The test can be described thus: mass photometry. The source holds these as a separate data set.
Test [4] has the same target. The test is described as follows: SEC. The source holds these as a separate data set.
Test [5] deals with His-MeSufC (expressed alone in E. coli) (Monocercomonoides exilis). The test can be described thus: SEC.
Test [6] concerns the target T25-MeSufB (Monocercomonoides exilis). The test can be described thus: two-hybrid.
Test [7] deals with His-MeSufB (Monocercomonoides exilis). The test is described as follows: mass photometry.
Test [8] deals with T25-MeSufC (Monocercomonoides exilis). The test is described as follows: two-hybrid.

Where “and” joins values, the source holds several entries; their conditions need not be identical. Equal values may be shown once.

Regarding “MeSufBC complex (His-MeSufB with MeSufC-HA)”, the stoichiometry N (MeSufBC units) in test [1] was 2 and 4; in test [2], 2; in test [3], 2; in test [4], 4.

For “His-MeSufC (expressed alone in E. coli) (enzyme)”, in test [5], the stoichiometry N was 2.

The molecule MeSufC-T18 (natural protein) gave a β-galactosidase activity (BACTH) in test [6] of 670 Miller units.

In test [7], MeSufC-HA (enzyme) returned a stoichiometry N (MeSufC per MeSufB) of 1.

B1: EcSufB-T18 (natural protein)
chain: MSRNTEATDDVKTWTGGPLNYKEGFFTQLATDELAKGINEEVVRAISAKRNEPEWMLEFRLNAYRAWLEMEEPHWLKAHYDKLNYQDYSYYSAPSCGNCDDTCASEPGAVQQTGANAFLSKEVEAAFEQLGVPVREGKEVAVDAIFDSVSVATTYREKLAEQGIIFCSFGEAIHDHPELVRKYLGTVVPGNDNFFAALNAAVASDGTFIYVPKGVRCPMELSTYFRINAEKTGQFERTILVADEDSYVSYIEGCSAPVRDSYQLHAAVVEVIIHKNAEVKYSTVQNWFPGDNNTGGILNFVTKRALCEGENSKMSWTQSETGSAITWKYPSCILRGDNSIGEFYSVALTSGHQQADTGTKMIHIGKNTKSTIISKGISAGHSQNSYRGLVKIMPTATNARNFTQCDSMLIGANCGAHTFPYVECRNNSAQLEHEATTSRIGEDQLFYCLQRGISEEDAISMIVNGFCKDVFSELPLEFAVEAQKLLAISLEHSVG
B1 gave a β-galactosidase activity (BACTH) in test [8] of 556 Miller units.

B2: EcSufC-T18 (natural protein)
chain: MLSIKDLHVSVEDKAILRGLSLDVHPGEVHAIMGPNGSGKSTLSATLAGREDYEVTGGTVEFKGKDLLALSPEDRAGEGIFMAFQYPVEIPGVSNQFFLQTALNAVRSYRGQETLDRFDFQDLMEEKIALLKMPEDLLTRSVNVGFSGGEKKRNDILQMAVLEPELCILDESDSGLDIDALKVVADGVNSLRDGKRSFIIVTHYQRILDYIKPDYVHVLYQGRIVKSGDFTLVKQLEEQGYGWLTEQQ
B2: the β-galactosidase activity (BACTH) in test [6] was 1040 Miller units.

The record behind these values is doi:10.1101/2023.03.30.534840.
